The supplement of paper PMC10567573

B1: PLD5 (parent)
chain: KRTYWPDLDAKIREALVLRSVRVR
B2: EFHC1 (parent)
chain: NIYYYLEDDSMSVIEPVVENSGIL

Variants of: B1
Assay: protein stability index of a GFP-peptide fusion (GPS, HEK-293T) (PSI 1-6); higher = more stable
Conditions: c terminus: a fixed tail appended
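Note: lentivirally expressed fusions sorted by FACS into six bins by GFP to DsRed ratio, PSI derived from sequencing read proportions per bin multiplied by bin number.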

Protein stability index: each site, then its substitutions
R24: K 1.08; N 1.62; A 1.53; F 2.13; M 1.68; I 2.32; S 1.97; Y 2.74; C 2.52; P 2.01; T 1.52; H 1.74; Q 3.34; D 2.27; L 1.77; E 1.94
W5: R 2.1; D 1.73; H 2.9; Q 2.15; C 1.5; K 2.01; A 1.86; I 3.62; V 4.52; N 1.96; E 2.79; T 1.58; S 2.66
A15: V 1.04; W 1.62; P 1.67; T 1.72; E 2.26; N 1.51; Y 2.11; K 1.9
S20: Q 2.04; N 1.77; K 1.48; R 2; T 1.96
V17: L 1.91; I 1.11; H 3.18; W 1.3; T 1.57; R 1.32; K 1.79; E 1.6; S 1.95; N 5.34; G 2.11; Q 1.57; M 2.18
L8: A 2.18; R 3.06; N 1.73; D 2.83; M 2.72; Q 1.88; F 2; P 1.82; E 2.94; W 1.85; T 2.24; H 2.47
I12: L 1.81; F 1.93; C 2.29; E 2.76; M 2.38; D 1.43; V 2.3; Y 1.29; R 2.78; A 2.01; Q 2.54; T 2.7; H 2.19
R22: K 1.99; T 1.59; E 2.02; V 2.14; G 1.65; Y 1.61; S 2.14; C 2.32; L 1.4; A 1.45; P 1.65; D 2.31; H 1.51
Y4: E 2.69; F 1.41; W 1.75; T 1.82; P 1.9; D 2.75; L 2.27; A 1.17; S 1.67; Q 1.93; I 1.96; K 1.48; H 2.25; C 1.85
L18: K 2.64; E 2.93; T 1.71; Y 2.09; R 2.12; V 1.6; S 1.88; N 2.45; H 2.16; W 2.04; G 1.91; F 1.78
R13: Q 1.28; S 1.43; V 2.31; C 2.29; M 1.54; P 1.79; N 1.61; G 1.89; A 1.3; Y 1.65; H 2.6
V23: N 2.54; A 1.93; M 3.02; I 1.96; C 1.61; K 1.99; F 1.9; Y 1.74; H 2.1; P 3.22; W 1.78; E 1.64; L 1.03; D 2.35; Q 2.12
A10: T 2.33; Y 2.61; L 2.05; F 1.52; I 2.54; V 1.93; P 2.36; H 3.11
R19: T 2.53; Y 2.67; N 2.8; E 1.69; S 1.8; C 2.36; H 1.48; K 1.45
K11: E 2.17; M 1.04; T 2.42; D 2.29; A 1.42; P 2.14; H 1.29; Y 1.99
L16: P 2.02; Y 2.06; W 3.86; G 1.31; S 2.51; H 2.94; I 1.95; V 2.53
D7: P 3.44; M 2.84; C 1.61; V 1.23; Y 1.37; S 2.02; L 1.82; A 1.87; F 1.58; T 2.39; R 2.62; E 1.02
V21: S 2.09; K 2.75; I 1.66; Q 2; E 2.24; G 2.4; R 2.4; A 1.84; N 2.48; H 2.11; M 2.51; T 1.91; Y 2.68; F 3.54
K1: S 1.84; G 2.53; T 1.93; E 2.58; L 1.6; D 2.06; Y 1.05; H 2.25; N 2.21; C 1.46; R 1.92; F 2.55; P 1.79; M 1.79
E14: G 2.75; H 1.27; A 1.09; T 2.42; S 1.13; Q 1.88; K 1.68; P 2.13
T3: S 1.6; E 1.28; W 1.12; Q 2.91; I 1.46; L 2.83; A 1.78
P6: D 1.28; A 2.54; H 1.96; G 1.82; C 1.06; K 1.25; F 2.23; W 3.99
D9: H 2.57; G 2.88; E 2.54; N 1.59
R2: H 1.54; W 1.32; M 1.77; T 2.63; E 2.14; V 2.43; Q 2.31; Y 1.09; P 2.7; K 2.56; F 2.92; N 2.14

Variants of: B2
Assay: as above
Conditions: c terminus: a fixed tail appended

Protein stability index of substitutions, site by site:
N20: K 2.06; H 1.79; S 2.13; G 2.77; R 1.33; L 3.52; V 2.71; Q 1.67; W 2.37; T 1.71; P 2.95
I23: C 2.12; P 2.42; Y 2.51; E 3.12; T 3.04; A 2.82; R 1.99; G 2.14; Q 2.78; W 2.47; F 1.2; N 2.71; D 2.81; K 2.53; V 1.8; H 2.43
G22: M 1.46; C 1.62; R 1.55; I 1.81; V 2.43; L 1.51; S 1.7; P 2.14; N 2.25; E 2.71; Q 1.82; A 2.19; H 1.71; T 1.42; K 1.78; D 2.44; Y 1.5
S21: V 1.6; Q 2.6; T 1.82; G 2.23; M 1.78; A 1.76; P 2.4; K 2.12; E 2.31; C 2.57; H 2.09; Y 1.39; R 1.74; N 2.33; D 2.4; L 2.03; I 1.48; F 1.45
L24: W 1.4; I 3.15; S 2.58; H 2.31; N 2.48; A 2.08; C 2.02; Y 2.31; G 2.47; M 2.02; P 2.41; D 2.48; R 2.46; F 2.12; Q 2.36; V 2.21
